To fix the notation:
B1: protease from delta9 LQAS-12aa ext H6(C) VZV (enzyme)
chain: MEALYVAGLYALYSKDEGELNITPEIVRSALPPTSKIPINIDHRKDCVVGEVIAIIEDIRGPFFLGIVRCPQLHAVLFEAAHSNFFGNRDSVLSPLERALYLVTNYLPSVSLSSKRLSPNEIPDGNFFTHVALCVVGRRVGTVVNYDCTPESSIEPFRVLSMESKARLLSLVKDYAGLNKVWKVSEDKLAKVLLSTAVNNMLLRDRWDVVAKRRREAGIMGHVYLQA
B2: CMV A143V protease (enzyme)
chain: MTMDEQQSQAVAPVYVGGFLARYDQSPDEAELLLPRDVVEHWLHAQGQGQPSLSVALPLNINHDDTAVVGHVAAMQSVRDGLFCLGCVTSPRFLEIVRRASEKSELVSRGPVSPLQPDKVVEFLSGSYAGLSLSSRRCDDVEVATSLSGSETTPFKHVALCSVGRRRGTLAVYGRDPEWVTQRFPDLTAADRDGLRAQWQRCGSTAVDASGDPFRSDSYGLLGNSVDALYIRERLPKLRYDKQLVGVTERESYVKA
B3: HSV-1 protease (enzyme)
chain: MAADAPGDRMEEPLPDRAVPIYVAGFLALYDSGDSGELALDPDTVRAALPPDNPLPINVNHRAGCEVGRVLAVVDDPRGPFFVGLIACVQLERVLETAASAAIFERRGPPLSREERLLYLITNYLPSVSLATKRLGGEAHPDRTLFAHVALCAIGRRLGTIVTYDTGLDAAIAPFRHLSPASREGARRLAAEAELALSGRTWAPGVEALTHTLLSTAVNNMMLRDRWSLVAERRRQAGIAGHTYLQA
B4: unliganded HSV-2 protease (enzyme)
chain: MASAEMRERLEAPLPDRAVPIYVAGFLALYDSGDPGELALDPDTVRAALPPENPLPINVNHRARCEVGRVLAVVNDPRGPFFVGLIACVQLERVLETAASAAIFERRGPALSREERLLYLITNYLPSVSLSTKRRGDEVPPDRTLFAHVALCAIGRRLGTIVTYDTSLDAAIAPFRHLDPATREGVRREAAEAELALAGRTWAPGVEALTHTLLSTAVNNMMLRDRWSLVAERRRQAGIAGHTYLQA

This data set deals with the molecule itself. The data set is described as follows: crystal structure, homodimer.
With B1, the binding result is “binds”.

As for B2, the binding result is recorded as “binds”.

In the case of B3, the binding result is “binds”.

As to B4, the binding result is “binds”.

For the origin of these results see patent US6083711, “Proteases compositions capable of binding to said site, and methods of use thereof” (SmithKline Beecham Corporation, dated 2000).
